Test results published in IntAct's records for PubMed 31515488.

B1: PIH1 domain-containing protein 2 (Homo sapiens), Q8WWB5 (parent)
chain: METSSKGLLTQVTQFWNLLDDLAQSDPEGYEKFIQQQLKEGKQLCAAPEPQLCLQTRILKPKEKILFINLCQWTRIPAPQSTTHPVPLTVGKPEDTTEISDAYTVIDVAYNPDVLHAAEKDQVKKNQLIQMAMKCIEEKFQFTLSHSYHITKFRIKGSIQRMKQNLMGIQTDSIDLREKMRRELTLGQIRSSTMSNPDHFPQLLLPKDQVSGKAVCLIEEISSTEIQVEMKMPAYELKIVHDHSEKPLKIELKVELPGINSVSLCDLSVSEDDLLIEVSEKYRLHLNLPKLIDTEMTTAKFIKEKSTLIITMPLV
B2: SKA complex subunit 1 (Homo sapiens), Q96BD8 (parent)
chain: MASSDLEQLCSHVNEKIGNIKKTLSLRNCGQEPTLKTVLNKIGDEIIVINELLNKLELEIQYQEQTNNSLKELCESLEEDYKDIEHLKENVPSHLPQVTVTQSCVKGSDLDPEEPIKVEEPEPVKKPPKEQRSIKEMPFITCDEFNGVPSYMKSRLTYNQINDVIKEINKAVISKYKILHQPKKSMNSVTRNLYHRFIDEETKDTKGRYFIVEADIKEFTTLKADKKFHVLLNILRHCRRLSEVRGGGLTRYVIT
partner: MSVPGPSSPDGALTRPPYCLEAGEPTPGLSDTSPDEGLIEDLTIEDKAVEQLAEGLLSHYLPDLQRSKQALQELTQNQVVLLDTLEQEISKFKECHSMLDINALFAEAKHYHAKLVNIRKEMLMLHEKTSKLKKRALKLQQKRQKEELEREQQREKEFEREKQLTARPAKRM
B3: E3 ubiquitin-protein ligase TRAIP (Homo sapiens), Q9BWF2 (parent)
chain: MPIRALCTICSDFFDHSRDVAAIHCGHTFHLQCLIQWFETAPSRTCPQCRIQVGKRTIINKLFFDLAQEEENVLDAEFLKNELDNVRAQLSQKDKEKRDSQVIIDTLRDTLEERNATVVSLQQALGKAEMLCSTLKKQMKYLEQQQDETKQAQEEARRLRSKMKTMEQIELLLQSQRPEVEEMIRDMGVGQSAVEQLAVYCVSLKKEYENLKEARKASGEVADKLRKDLFSSRSKLQTVYSELDQAKLELKSAQKDLQSADKEIMSLKKKLTMLQETLNLPPVASETVDRLVLESPAPVEVNLKLRRPSFRDDIDLNATFDVDTPPARPSSSQHGYYEKLCLEKSHSPIQDVPKKICKGPRKESQLSLGGQSCAGEPDEELVGAFPIFVRNAILGQKQPKRPRSESSCSKDVVRTGFDGLGGRTKFIQPTDTVMIRPLPVKPKTKVKQRVRVKTVPSLFQAKLDTFLWS
B4: Ribonuclease inhibitor (Homo sapiens), P13489 (parent)
chain: MSLDIQSLDIQCEELSDARWAELLPLLQQCQVVRLDDCGLTEARCKDISSALRVNPALAELNLRSNELGDVGVHCVLQGLQTPSCKIQKLSLQNCCLTGAGCGVLSSTLRTLPTLQELHLSDNLLGDAGLQLLCEGLLDPQCRLEKLQLEYCSLSAASCEPLASVLRAKPDFKELTVSNNDINEAGVRVLCQGLKDSPCQLEALKLESCGVTSDNCRDLCGIVASKASLRELALGSNKLGDVGMAELCPGLLHPSSRLRTLWIWECGITAKGCGDLCRVLRAKESLKELSLAGNELGDEGARLLCETLLEPGCQLESLWVKSCSFTAACCSHFSSVLAQNRFLLELQISNNRLEDAGVRELCQGLGQPGSVLRVLWLADCDVSDSSCSSLAATLLANHSLRELDLSNNCLGDAGILQLVESVRQPGCLLEQLVLYDIYWSEEMEDRLQALEKDKPSLRVIS
B5: Phosphatidylserine lipase ABHD16A (Homo sapiens), O95870 (parent)
chain: MAKLLSCVLGPRLYKIYRERDSERAPASVPETPTAVTAPHSSSWDTYYQPRALEKHADSILALASVFWSISYYSSPFAFFYLYRKGYLSLSKVVPFSHYAGTLLLLLAGVACLRGIGRWTNPQYRQFITILEATHRNQSSENKRQLANYNFDFRSWPVDFHWEEPSSRKESRGGPSRRGVALLRPEPLHRGTADTLLNRVKKLPCQITSYLVAHTLGRRMLYPGSVYLLQKALMPVLLQGQARLVEECNGRRAKLLACDGNEIDTMFVDRRGTAEPQGQKLVICCEGNAGFYEVGCVSTPLEAGYSVLGWNHPGFAGSTGVPFPQNEANAMDVVVQFAIHRLGFQPQDIIIYAWSIGGFTATWAAMSYPDVSAMILDASFDDLVPLALKVMPDSWRGLVTRTVRQHLNLNNAEQLCRYQGPVLLIRRTKDEIITTTVPEDIMSNRGNDLLLKLLQHRYPRVMAEEGLRVVRQWLEASSQLEEASIYSRWEVEEDWCLSVLRSYQAEHGPDFPWSVGEDMSADGRRQLALFLARKHLHNFEATHCTPLPAQNFQMPWHL
B6: SH2 domain-containing protein 4A (Homo sapiens), Q9H788 (parent)
chain: MLKQILSEMYIDPDLLAELSEEQKQILFFKMREEQIRRWKEREAAMERKESLPVKPRPKKENGKSVHWKLGADKEVWVWVMGEHHLDKPYDVLCNEIIAERARLKAEQEAEEPRKTHSEEFTNSLKTKSQYHDLQAPDNQQTKDIWKKVAEKEELEQGSRPAPTLEEEKIRSLSSSSRNIQQMLADSINRMKAYAFHQKKESMKKKQDEEINQIEEERTKQICKSWKEDSEWQASLRKSKAADEKRRSLAKQAREDYKRLSLGAQKGRGGERLQSPLRVPQKPERPPLPPKPQFLNSGAYPQKPLRNQGVVRTLSSSAQEDIIRWFKEEQLPLRAGYQKTSDTIAPWFHGILTLKKANELLLSTGMPGSFLIRVSERIKGYALSYLSEDGCKHFLIDASADAYSFLGVDQLQHATLADLVEYHKEEPITSLGKELLLYPCGQQDQLPDYLELFE
partner: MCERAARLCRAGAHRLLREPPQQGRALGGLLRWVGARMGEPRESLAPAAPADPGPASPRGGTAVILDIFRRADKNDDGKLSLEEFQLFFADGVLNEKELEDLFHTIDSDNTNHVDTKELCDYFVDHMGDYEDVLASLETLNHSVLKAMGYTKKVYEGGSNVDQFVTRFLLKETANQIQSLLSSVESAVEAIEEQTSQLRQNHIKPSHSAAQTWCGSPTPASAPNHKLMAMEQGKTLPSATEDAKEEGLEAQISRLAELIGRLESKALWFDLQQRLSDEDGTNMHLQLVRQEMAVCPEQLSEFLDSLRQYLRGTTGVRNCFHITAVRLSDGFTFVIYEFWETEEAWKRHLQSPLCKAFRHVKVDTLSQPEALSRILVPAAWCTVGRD

Variants of: B1
Conditions: with cenpr_human ITGB3BP

| effect of a mutation on the interaction | Variant |
| --- | --- |
| with no effect | A117V |

Variants of: B1
Conditions: with if2b3_human IGF2BP3, O00425
Sequence of if2b3_human IGF2BP3, O00425 (O00425 whole entry): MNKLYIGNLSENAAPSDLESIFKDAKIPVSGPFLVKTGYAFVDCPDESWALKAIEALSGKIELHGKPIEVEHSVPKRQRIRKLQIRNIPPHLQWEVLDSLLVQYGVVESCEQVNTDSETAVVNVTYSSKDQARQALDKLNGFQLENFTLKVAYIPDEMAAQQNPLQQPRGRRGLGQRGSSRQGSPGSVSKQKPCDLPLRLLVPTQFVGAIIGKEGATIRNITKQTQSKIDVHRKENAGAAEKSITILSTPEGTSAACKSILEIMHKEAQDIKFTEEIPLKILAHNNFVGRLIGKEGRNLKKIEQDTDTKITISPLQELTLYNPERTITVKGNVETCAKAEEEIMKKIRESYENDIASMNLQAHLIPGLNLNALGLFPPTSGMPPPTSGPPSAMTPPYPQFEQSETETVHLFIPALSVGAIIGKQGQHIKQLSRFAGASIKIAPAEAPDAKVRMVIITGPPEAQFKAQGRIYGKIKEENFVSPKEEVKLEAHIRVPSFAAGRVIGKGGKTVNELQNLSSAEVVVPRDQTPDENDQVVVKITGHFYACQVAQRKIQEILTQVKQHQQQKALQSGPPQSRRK

| effect of a mutation on the interaction | Variant |
| --- | --- |
| with no effect | A117V |

Variants of: B1
Conditions: with if4a2_human EIF4A2, Q14240
Sequence of if4a2_human EIF4A2, Q14240 (Q14240 whole entry): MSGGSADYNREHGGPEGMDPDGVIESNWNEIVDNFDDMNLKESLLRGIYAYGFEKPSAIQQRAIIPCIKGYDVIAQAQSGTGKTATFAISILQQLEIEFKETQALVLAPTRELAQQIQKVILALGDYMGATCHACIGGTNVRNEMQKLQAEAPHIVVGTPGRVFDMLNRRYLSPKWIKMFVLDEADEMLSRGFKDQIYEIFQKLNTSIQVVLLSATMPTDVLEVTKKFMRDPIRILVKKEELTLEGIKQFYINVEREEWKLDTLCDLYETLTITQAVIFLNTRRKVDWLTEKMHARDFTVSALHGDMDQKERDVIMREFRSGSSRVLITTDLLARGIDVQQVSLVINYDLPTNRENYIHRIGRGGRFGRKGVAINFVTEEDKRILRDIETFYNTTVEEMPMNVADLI

| effect of a mutation on the interaction | Variant |
| --- | --- |
| with no effect | A117V |

Variants of: B1
Conditions: with gfap_human GFAP

| effect of a mutation on the interaction | Variant |
| --- | --- |
| disrupting interaction strength | A117V |

Variants of: B2
Conditions: with bl1s6_human BLOC1S6, Q9UL45

| effect of a mutation on the interaction | Variant |
| --- | --- |
| with no effect | H86R |
| with no effect | V230M |

Variants of: B3
Conditions: with mare2_human MAPRE2, Q15555
Sequence of mare2_human MAPRE2, Q15555 (Q15555 whole entry): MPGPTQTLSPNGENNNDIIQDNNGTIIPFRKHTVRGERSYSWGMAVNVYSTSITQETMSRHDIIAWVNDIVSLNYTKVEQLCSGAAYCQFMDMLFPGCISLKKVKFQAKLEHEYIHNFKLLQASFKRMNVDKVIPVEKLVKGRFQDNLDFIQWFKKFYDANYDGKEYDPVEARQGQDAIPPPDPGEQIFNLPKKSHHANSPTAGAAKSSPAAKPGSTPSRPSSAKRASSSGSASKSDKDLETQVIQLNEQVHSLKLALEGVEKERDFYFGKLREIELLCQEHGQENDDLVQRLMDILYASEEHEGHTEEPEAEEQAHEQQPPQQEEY

| effect of a mutation on the interaction | Variant |
| --- | --- |
| with no effect | Q428H |

Variants of: B4
Conditions: with sdcb1_human SDCBP

| effect of a mutation on the interaction | Variant |
| --- | --- |
| disrupting interaction strength | R110C |

Variants of: B5
Conditions: with dtx2_human DTX2, Q86UW9
Sequence of dtx2_human DTX2, Q86UW9 (Q86UW9 whole entry): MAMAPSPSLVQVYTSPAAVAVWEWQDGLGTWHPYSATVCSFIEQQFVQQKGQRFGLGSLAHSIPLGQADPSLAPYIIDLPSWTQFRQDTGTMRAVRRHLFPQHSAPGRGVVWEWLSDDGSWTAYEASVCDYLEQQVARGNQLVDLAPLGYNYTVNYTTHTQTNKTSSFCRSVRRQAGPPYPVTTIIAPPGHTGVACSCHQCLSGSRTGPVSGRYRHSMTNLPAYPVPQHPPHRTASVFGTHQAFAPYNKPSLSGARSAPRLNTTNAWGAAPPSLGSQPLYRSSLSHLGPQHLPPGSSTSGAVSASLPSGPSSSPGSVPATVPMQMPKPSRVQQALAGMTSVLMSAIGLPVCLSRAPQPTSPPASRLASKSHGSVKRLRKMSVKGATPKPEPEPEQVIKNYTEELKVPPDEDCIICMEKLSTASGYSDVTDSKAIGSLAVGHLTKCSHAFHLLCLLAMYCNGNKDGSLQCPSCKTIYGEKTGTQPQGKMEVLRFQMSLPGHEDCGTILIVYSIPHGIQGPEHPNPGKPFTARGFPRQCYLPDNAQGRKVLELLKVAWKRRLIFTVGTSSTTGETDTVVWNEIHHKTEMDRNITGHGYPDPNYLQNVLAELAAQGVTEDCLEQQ

| effect of a mutation on the interaction | Variant |
| --- | --- |
| with no effect | R184L |

Variants of: B6
Conditions: with neca2_human NECAB2, Q7Z6G3

| effect of a mutation on the interaction | Variant |
| --- | --- |
| with no effect | G263A |
| with no effect | E216G |
